# Earlier results, collected in PMC2766628.
# Target: PEP 3BP1 element (UniProt Q9Y2R2)
# Sequence of UniProt Q9Y2R2 (Q9Y2R2 605-629): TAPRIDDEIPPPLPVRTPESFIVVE
substance,measurement,value
Csk SH3 (from UniProt P41240),Kd,0.8 µM
